Experimental data from EP1775307B1 (dated 2011).
Blank lines part the entries; values can stand above or below the molecule they belong to.

How the values were obtained:
[1] = target: 28/32 kDa heterodimeric antigen on the surface of malignant B-cells (human); test: Scatchard analysis, 125I-labeled antibody on Raji cells
[2] = target: T1, human CD3 antigen (CD3 complex) on T cells (human, UniProt P07766 23-207); test: Scatchard analysis, 125I-labeled HuM291-Fos on activated human T cells
T1 construct: whole, on cells; Multi-subunit complex; also called human CD3 complex
T1 sequence (P07766 23-207, one chain of several): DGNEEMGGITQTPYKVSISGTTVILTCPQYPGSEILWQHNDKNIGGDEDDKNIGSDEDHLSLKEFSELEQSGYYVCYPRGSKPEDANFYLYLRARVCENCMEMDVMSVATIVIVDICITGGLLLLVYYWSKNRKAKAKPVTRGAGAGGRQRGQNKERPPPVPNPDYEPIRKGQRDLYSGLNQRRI

Ka [1]: 2.3e+08 M⁻¹
Molecule: humanized 1D10-IgG1 (antibody)

Ka [2]: 1.1e+09 M⁻¹
B1: HuM291-Fos F(ab'-zipper)2 (other)
chain 1: QVQLVQSGAEVKKPGASVKVSCKASGYTFISYTMHWVRQAPGQGLEWMGYINPRSGYTHYNQKLKDKATLTADKSASTAYMELSSLRSEDTAVYYCARSAYYDYDGFAYWGQGTLVTVSSASTKGPSVFPLAPSSKSTSGGTAALGCLVKDYFPEPVTVSWNSGALTSGVHTFPAVLQSSGLYSLSSVVTVPSSSLGTQTYICNVNHKPSNTKVDKKVEPKSCDKTHTCPPCKCPAGGLTDTLQAETDQLEDKKSALQTEIANLLKGKEKLEFILAATS
chain 2: DIQMTQSPSSLSASVGDRVTITCSASSSVSYMNWYQQKPGKAPKRLIYDTSKLASGVPSRFSGSGSGTDFTLTISSLQPEDFDTYYCQQWSSNPPTFGGGTKVEIKRTVAAPSVFIFPPSDEQLKSGTASVVCLLNNFYPREAKVQWKVDNALQSGNSQESVTEQDSKDSTYSLSSTLTLSKADYEKHKVYACEVTHQGLSSPVTKSFNRGEC
